In patent US20210147558A1 (OSE IMMUNOTHERAPEUTICS, published 2021):

Target: T1, human CMKLR1 (Chemokine-like receptor 1) (human, UniProt Q99788 1-373)
T1 sequence: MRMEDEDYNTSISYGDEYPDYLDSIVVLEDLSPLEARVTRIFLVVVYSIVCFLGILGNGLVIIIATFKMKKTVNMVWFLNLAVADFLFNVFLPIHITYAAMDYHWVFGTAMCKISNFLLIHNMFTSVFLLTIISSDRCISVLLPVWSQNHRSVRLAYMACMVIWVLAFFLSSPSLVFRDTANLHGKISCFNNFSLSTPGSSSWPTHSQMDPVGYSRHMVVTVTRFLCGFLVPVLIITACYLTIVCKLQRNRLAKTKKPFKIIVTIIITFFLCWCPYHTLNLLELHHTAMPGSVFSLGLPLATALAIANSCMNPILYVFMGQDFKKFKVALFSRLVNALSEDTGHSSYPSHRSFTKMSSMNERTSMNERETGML
Test: cell-based or functional assay

IC50 (read off the curve) of the partial decrease (about one fifth); 2G1 with chemerin 6 nM (circles), beta-arrestin recruitment, CHO-K1 CMKLR1 cells: ~10 nM
IC50 (read off the curve) of the partial decrease (about one third); 2G1 with chemerin 2 nM (diamonds), beta-arrestin recruitment, CHO-K1 CMKLR1 cells: ~20 nM
B1: anti-CMKLR1 antibody clone 2G1 (antibody, V domains shown)
VH: EVQLVASGGGLVQPGGSLKLSCAASGFTFSSYGMSWVRQTPDRRLELVATINRYGGSTYYPDSVKGRFTISRDNAKNTLYLQMSSLKSEDTAMYYCPRLIYYGNEGDSWGQGTTLTVSS
VL: QIVLTQSPAIMSASPGEKVTMTCSASSSVSFMHWYQQKSGTSPKRWIYDTTKLTSGVPARFSGSGSGTFYSLTISSMEAEDAATYYCQQWNSKPPLTFGPGTKLELKR
